This note sets out measurements from patent US20070271623A1 (UNIVERSITY OF COPENHAGEN, published 2007).

Sequences and labels used below:
T1: MPK4 as prey (AD fusion) (Arabidopsis thaliana, UniProt Q39024 1-376, limits assumed)
T1 construct: Used in the directed two-hybrid assay with MKS1 as bait; also called MPK4 prey
T1 sequence (looked up): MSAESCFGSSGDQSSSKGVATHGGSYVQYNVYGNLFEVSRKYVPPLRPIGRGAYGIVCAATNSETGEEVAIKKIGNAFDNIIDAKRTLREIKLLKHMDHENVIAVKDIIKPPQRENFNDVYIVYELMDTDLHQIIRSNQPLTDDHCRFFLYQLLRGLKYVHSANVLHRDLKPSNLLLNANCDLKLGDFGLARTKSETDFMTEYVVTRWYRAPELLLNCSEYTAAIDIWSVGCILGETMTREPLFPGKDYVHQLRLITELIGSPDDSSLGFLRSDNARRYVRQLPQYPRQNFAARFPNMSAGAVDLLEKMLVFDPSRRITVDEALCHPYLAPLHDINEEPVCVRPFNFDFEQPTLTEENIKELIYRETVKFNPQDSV

T2: Flg22 peptide
T2 chain: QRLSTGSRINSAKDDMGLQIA

T3: Pep22, synthetic peptide corresponding to amino acid residues 13-35 of MKS1
T3 chain: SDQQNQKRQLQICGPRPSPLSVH

T4: histidine-tagged C1-MKS1 truncation (amino acids 1-196)
T4 chain: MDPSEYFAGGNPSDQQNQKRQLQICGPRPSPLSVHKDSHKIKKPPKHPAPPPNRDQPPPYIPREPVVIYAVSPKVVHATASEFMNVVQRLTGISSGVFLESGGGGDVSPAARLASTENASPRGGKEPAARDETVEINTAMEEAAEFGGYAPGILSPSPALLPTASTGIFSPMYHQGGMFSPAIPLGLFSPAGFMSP

T5: histidine-tagged C2-MKS1 truncation (amino acids 1-123)
T5 chain: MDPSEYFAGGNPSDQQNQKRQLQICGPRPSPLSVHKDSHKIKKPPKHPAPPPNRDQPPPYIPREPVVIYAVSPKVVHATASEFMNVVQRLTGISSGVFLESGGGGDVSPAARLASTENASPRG

T6: histidine-tagged C3-MKS1 truncation (amino acids 1-73)
T6 chain: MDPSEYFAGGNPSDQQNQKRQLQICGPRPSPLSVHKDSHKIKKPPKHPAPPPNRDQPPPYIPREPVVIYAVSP

T7: recombinant, full-length histidine-tagged MKS1
T7 chain: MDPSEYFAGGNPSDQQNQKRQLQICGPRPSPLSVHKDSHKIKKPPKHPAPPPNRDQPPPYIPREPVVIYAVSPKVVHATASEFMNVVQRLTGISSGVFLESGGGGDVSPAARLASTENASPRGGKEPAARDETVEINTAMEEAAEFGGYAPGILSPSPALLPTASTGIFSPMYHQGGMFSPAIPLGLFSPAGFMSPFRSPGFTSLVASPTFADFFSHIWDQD

T8: MPK3 as prey (AD fusion) (UniProt Q39023 1-370)
T8 sequence (looked up): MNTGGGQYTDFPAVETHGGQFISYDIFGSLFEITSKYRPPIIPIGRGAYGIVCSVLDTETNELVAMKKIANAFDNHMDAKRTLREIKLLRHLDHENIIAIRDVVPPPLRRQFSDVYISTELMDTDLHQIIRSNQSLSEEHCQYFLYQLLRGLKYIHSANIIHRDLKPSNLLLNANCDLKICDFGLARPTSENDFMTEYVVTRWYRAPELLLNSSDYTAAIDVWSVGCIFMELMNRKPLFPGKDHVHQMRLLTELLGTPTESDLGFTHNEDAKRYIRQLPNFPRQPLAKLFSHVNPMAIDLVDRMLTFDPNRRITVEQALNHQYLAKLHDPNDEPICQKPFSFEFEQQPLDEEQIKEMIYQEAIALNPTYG

T9: MPK17 as prey (AD fusion) (UniProt Q84M93 1-486, limits assumed)
T9 sequence (looked up): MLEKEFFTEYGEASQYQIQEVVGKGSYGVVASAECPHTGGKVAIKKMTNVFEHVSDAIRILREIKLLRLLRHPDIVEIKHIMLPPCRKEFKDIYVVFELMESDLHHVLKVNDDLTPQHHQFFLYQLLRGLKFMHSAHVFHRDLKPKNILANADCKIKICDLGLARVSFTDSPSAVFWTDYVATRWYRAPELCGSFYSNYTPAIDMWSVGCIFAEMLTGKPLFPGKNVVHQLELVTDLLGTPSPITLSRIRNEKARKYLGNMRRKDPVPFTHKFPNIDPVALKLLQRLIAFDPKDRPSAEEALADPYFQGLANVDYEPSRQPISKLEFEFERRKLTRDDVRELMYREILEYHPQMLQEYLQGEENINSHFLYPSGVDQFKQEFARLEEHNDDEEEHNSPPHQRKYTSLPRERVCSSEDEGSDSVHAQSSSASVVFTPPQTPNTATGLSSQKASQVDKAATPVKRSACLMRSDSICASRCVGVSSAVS

B1: WRKY25 as prey (AD fusion) (other, Arabidopsis thaliana, UniProt O22921 1-393, looked up, not shown: large carriers)
chain: MSSTSFTDLLGSSGVDCYEDDEDLRVSGSSFGGYYPERTGSGLPKFKTAQPPPLPISQSSHNFTFSDYLDSPLLLSSSHSLISPTTGTFPLQGFNGTTNNHSDFPWQLQSQPSNASSALQETYGVQDHEKKQEMIPNEIATQNNNQSFGTERQIKIPAYMVSRNSNDGYGWRKYGQKQVKKSENPRSYFKCTYPDCVSKKIVETASDGQITEIIYKGGHNHPKPEFTKRPSQSSLPSSVNGRRLFNPASVVSEPHDQSENSSISFDYSDLEQKSFKSEYGEIDEEEEQPEMKRMKREGEDEGMSIEVSKGVKEPRVVVQTISDIDVLIDGFRWRKYGQKVVKGNTNPRSYYKCTFQGCGVKKQVERSAADERAVLTTYEGRHNHDIPTALRRS
notes: Library clone; also called transcription factor WRKY25
B2: N1-MKS1, N-terminal truncated form (amino acids 55-222), two-hybrid construct (other)
chain: DQPPPYIPREPVVIYAVSPKVVHATASEFMNVVQRLTGISSGVFLESGGGGDVSPAARLASTENASPRGGKEPAARDETVEINTAMEEAAEFGGYAPGILSPSPALLPTASTGIFSPMYHQGGMFSPAIPLGLFSPAGFMSPFRSPGFTSLVASPTFADFFSHIWDQD
notes: also called N-terminally deleted MKS1; not shown: GAL4 BD or AD fusion partner
B3: C1-MKS1 truncation (amino acids 1-196), two-hybrid construct (other, not shown: large carriers)
chain: T4 chain
B4: WRKY29 as prey (AD fusion) (other, UniProt Q9SUS1 1-304, looked up, not shown: large carriers)
chain: MDEGDLEAIVRGYSGSGDAFSGESSGTFSPSFCLPMETSSFYEPEMETSGLDELGELYKPFYPFSTQTILTSSVSLPEDSKPFRDDKKQRSHGCLLSNGSRADHIRISESKSKKSKKNQQKRVVEQVKEENLLSDAWAWRKYGQKPIKGSPYPRSYYRCSSSKGCLARKQVERNPQNPEKFTITYTNEHNHELPTRRNSLAGSTRAKTSQPKPTLTKKSEKEVVSSPTSNPMIPSADESSVAVQEMSVAETSTHQAAGAIEGRRLSNGLPSDLMSGSGTFPSFTGDFDELLNSQEFFSGYLWNY
notes: mature
B5: HA (influenza hemagglutin antigen)-tagged MPK4 (protein)
chain: YPYDVPDYAYPYDVPDYAYPYDVPDYAYPYDVPDYAYPYDVPDYAYPYDVPDYAMSAESCFGSSGDQSSSKGVATHGGSYVQYNVYGNLFEVSRKYVPPLRPIGRGAYGIVCAATNSETGEEVAIKKIGNAFDNIIDAKRTLREIKLLKHMDHENVIAVKDIIKPPQRENFNDVYIVYELMDTDLHQIIRSNQPLTDDHCRFFLYQLLRGLKYVHSANVLHRDLKPSNLLLNANCDLKLGDFGLARTKSETDFMTEYVVTRWYRAPELLLNCSEYTAAIDIWSVGCILGETMTREPLFPGKDYVHQLRLITELIGSPDDSSLGFLRSDNARRYVRQLPQYPRQNFAARFPNMSAGAVDLLEKMLVFDPSRRITVDEALCHPYLAPLHDINEEPVCVRPFNFDFEQPTLTEENIKELIYRETVKFNPQDSV
B6: MKS1 as bait (BD fusion), MKS1-BD (other)
chain: MKLLSSIEQACDICRLKKLKCSKEKPKCAKCLKNNWECRYSPKTKRSPLTRAHLTEVESRLERLEQLFLLIFPREDLDMILKMDSLQDIKALLTGLFVQDNVNKDAVTDRLASVETDMPLTLRQHRISATSSSEESSNKGQRQLTVSMDPSEYFAGGNPSDQQNQKRQLQICGPRPSPLSVHKDSHKIKKPPKHPAPPPNRDQPPPYIPREPVVIYAVSPKVVHATASEFMNVVQRLTGISSGVFLESGGGGDVSPAARLASTENASPRGGKEPAARDETVEINTAMEEAAEFGGYAPGILSPSPALLPTASTGIFSPMYHQGGMFSPAIPLGLFSPAGFMSPFRSPGFTSLVASPTFADFFSHIWDQD
notes: also called MKS1 bait; MAP Kinase Substrate 1
B7: C2-MKS1 truncation (amino acids 1-123), two-hybrid construct (other, not shown: large carriers)
chain: T5 chain
B8: C3-MKS1 truncation (amino acids 1-73), two-hybrid construct (other, not shown: large carriers)
chain: T6 chain
B9: MPK5 as prey (AD fusion) (other, UniProt Q39025 127-376, looked up, not shown: large carriers)
chain: MDTDLHQIIRSNQSLNDDHCQYFLYQILRGLKYIHSANVLHRDLKPSNLLLNSNCDLKITDFGLARTTSETEYMTEYVVTRWYRAPELLLNSSEYTSAIDVWSVGCIFAEIMTREPLFPGKDYVHQLKLITELIGSPDGASLEFLRSANARKYVKELPKFPRQNFSARFPSMNSTAIDLLEKMLVFDPVKRITVEEALCYPYLSALHDLNDEPVCSNHFSFHFEDPSSTEEEIKELVWLESVKFNPLPSI

The target of series [1] is T10, MPK4 as bait (BD fusion) (Arabidopsis thaliana, UniProt P04386 1-147; Q39024 1-376).
T10 construct: also called MPK4 bait
In words: directed yeast two-hybrid assay.
Description: (§1) Yeast cells in the two hybrid screen were selected on the indicated nutrient depleted growth-media (-Histidine; -Leucine; -Adenine-Tryptophan) and assayed for β-galactosidase (β-gal) reporter gene activity.
(§2) To test the specificity of the MAP kinase interaction, the interaction of MKS1 with other plant MAP kinases was tested in the yeast two-hybrid assay.
(§3) The specificity of MKS1 interaction with WRKY transcription factors was examined in directed yeast two-hybrid assays with WRKY26 and WRKY29.

For series [2], the target named is T1, MPK4 as prey (AD fusion). Description: yeast two-hybrid assay.
Series [3] concerns the target B6. In words: directed yeast two-hybrid assay.
Description: as §1, §2, §3
The target in series [4] is T2, Flg22 peptide.
The target in series [5] is T3, Pep22, synthetic peptide corresponding ….
Series [6] concerns the target T4, histidine-tagged C1-MKS1 truncation ….
Series [7] has as its target T5, histidine-tagged C2-MKS1 truncation ….
In series [8] the target is T6, histidine-tagged C3-MKS1 truncation ….
Series [9] has as its target T7, recombinant, full-length ….
The target in series [10] is T8, MPK3 as prey (AD fusion). Description: directed yeast two-hybrid assay.
Description: as §1, §2, §3
Series [11] concerns the target MPK6 as prey (AD fusion) (UniProt Q39026 1-395). In words: directed yeast two-hybrid assay.
Description: as §1, §2, §3
Series [12] addresses T9, MPK17 as prey (AD fusion). Description: directed yeast two-hybrid assay.
Description: as §1, §2, §3
Series [13] deals with T11, WRKY33 as prey (AD fusion) (Arabidopsis thaliana, UniProt Q8S8P5 332-519, limits assumed).
T11 construct: The library hits were five different truncated WRKY33 proteins; also called W33; transcription factor WRKY33
T11 sequence (Q8S8P5 332-519 limits assumed): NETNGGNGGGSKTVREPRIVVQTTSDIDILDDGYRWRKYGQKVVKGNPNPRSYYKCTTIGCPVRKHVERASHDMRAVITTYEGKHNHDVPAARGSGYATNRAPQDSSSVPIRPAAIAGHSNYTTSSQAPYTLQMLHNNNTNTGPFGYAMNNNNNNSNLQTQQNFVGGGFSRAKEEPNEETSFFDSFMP
Description: yeast two-hybrid assay.

Sequence of MPK6 as prey (AD fusion) (Q39026 whole entry, the tested form may be a part): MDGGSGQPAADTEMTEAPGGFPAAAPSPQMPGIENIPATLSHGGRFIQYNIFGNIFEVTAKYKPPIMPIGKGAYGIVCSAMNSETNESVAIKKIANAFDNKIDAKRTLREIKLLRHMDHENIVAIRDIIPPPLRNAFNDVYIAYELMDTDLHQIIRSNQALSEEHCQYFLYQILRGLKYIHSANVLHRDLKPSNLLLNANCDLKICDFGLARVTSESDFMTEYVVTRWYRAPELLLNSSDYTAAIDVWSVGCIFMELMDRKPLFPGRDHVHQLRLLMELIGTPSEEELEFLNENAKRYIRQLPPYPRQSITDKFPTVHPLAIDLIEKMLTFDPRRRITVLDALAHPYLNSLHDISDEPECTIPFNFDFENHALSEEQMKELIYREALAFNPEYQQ

For B1, the binding result in [1] is on record as “no binding”.

As for B2, in series [2], the binding result was “no binding”.

Consider B3, for which the binding result in series [2] is “binds”.

On to B4, for which the binding result in [3] is listed as “no binding”.

B5: the “competition of MKS1 phosphorylation by MPK4 in vitro” value in series [4] is “the FIG. 22 peptide did not compete MKS1 phosphorylation”; in [5], “Pep22 is an efficient competitor of full-length MKS1 for phosphorylation by MPK4, when added to the in vitro assay in a molar ratio of 1:1 (Pep22:MKS1)”. Further, the “in vitro phosphorylation assay (32P-γ-ATP, SDS-PAGE, phosphorimager)” value was “HA-tagged MPK4 readily phosphorylated both full-length and C-terminal MKS1 truncations, including C3 MKS1” in series [6]; “HA-tagged MPK4 readily phosphorylated both full-length and C-terminal MKS1 truncations, including C3 MKS1” in [7]; “HA-tagged MPK4 readily phosphorylated both full-length and C-terminal MKS1 truncations, including C3 MKS1” in [8]; “HA-tagged MPK4, immunoprecipitated from Arabidopsis plants, is shown to in vitro phosphorylate MKS1 as efficiently as myelin basic protein” in series [9].

For B6, the binding result in [10], in [11] and in series [12] was “no binding” throughout.

Take B7: the binding result in series [2] is “binds”.

As for B8, the results for the binding result in series [13] and in [2] were “no binding” and “binds”, respectively.

Turning to B9, in series [3], the binding result is on record as “no binding”.
